From patent US20100260668A1 (published 2010)

Assays:
[1] = target: T1, DLL4 (DLL4 ECD/His tag, R&D Systems 1506-D4-050) (UniProt Q9NR61 27-529); assay: Direct bind ELISA on DLL4; DLL4 domain C-term., HC short, LC short
T1 construct: extracellular domain; not shown: His tag

[2] = target: T1, DLL4 (DLL4 ECD/His tag, R&D Systems …); assay: Direct bind ELISA on DLL4; DLL4 domain N-term., HC long, LC long

EC50 [1] | Binder | EC50 [2]
19.8 nM | DVD466 (VEGF/DLL4 DVD-Ig) (bispecific antibody, human IgG1, HC linker short, LC linker short; also called DVD466H; DVD466L) VH: EVQLVESGGGLVQPGGSLRLSCAASGFTISDYWIHWVRQAPGKGLEWVAGITPAGGYTYYADSVKGRFTISADTSKNTAYLQMNSLRAEDTAVYYCARFVFFLPYAMDYWGQGTLVTVSSASTKGPEVQLVESGGGLVQPGGSLRLSCAASGFTFTDNWISWVRQAPGKGLEWVGYISPNSGFTYYADSVKGRFTISADTSKNTAYLQMNSLRAEDTAVYYCARDNFGGYFDYWGQGTLVTVSS VL: DIQMTQSPSSLSASVGDRVTITCRASQDVSTAVAWYQQKPGKAPKLLIYSASFLYSGVPSRFSGSGSGTDFTLTISSLQPEDFATYYCQQSYTTPPTFGQGTKVEIKRTVAAPDIQMTQSPSSLSASVGDRVTITCRASQDVSTAVAWYQQKPGKAPKLLIYSASFLYSGVPSRFSGSGSGTDFTLTISSLQPEDFATTYYCQQSYTGTVTFGQGTKVEIKR | –
– | DVD519 (DLL4/VEGF DVD-Ig) (bispecific antibody, human IgG1, HC linker long, LC linker long; also called DVD519H; DVD519L) VH: EVQLQQSGPELEKPGASVKISCKASGYSFTGYNMNWVKQSNGKSLEWIGNIDPYFGGTNYNQKFKGKATLTVDKSSSTAYMQLKSLTSEDSAVYYCARNYDYDGGCFDYWGQGTTLTVSSASTKGPSVFPLAPEVQLVESGGGLVQPGGSLRLSCAASGFTISDYWIHWVRQAPGKGLEWVAGITPAGGYTYYADSVKGRFTISADTSKNTAYLQMNSLRAEDTAVYYCARFVFFLPYAMDYWGQGTLVTVSS VL: QAVVTQESALTTSPGETVTLTCRSSTGAVTTSNYANWVQEKPDHLFTGLIGGTNNRAPGVPARFSGSLIGDKAALTITGAQTEDEAIYFCALWYSNHWVFGGGTKLTVLGQPKAAPSVTLFPPDIQMTQSPSSLSASVGDRVTITCRASQDVSTAVAWYQQKPGKAPKLLIYSASFLYSGVPSRFSGSGSGTDFTLTISSLQPEDFATYYCQQSYTTPPTFGQGTKVEIKR | 1.53 nM
30.5 nM | DVD444 (VEGF/DLL4 DVD-Ig) (bispecific antibody, human IgG1, HC linker short, LC linker short; also called DVD444H; DVD444L) VH: EVQLVESGGGLVQPGGSLRLSCAASGFTISDYWIHWVRQAPGKGLEWVAGITPAGGYTYYADSVKGRFTISADTSKNTAYLQMNSLRAEDTAVYYCARFVFFLPYAMDYWGQGTLVTVSSASTKGPQVQLVQSGAEVKKPGASVKISCKASGYSFTAYYIHWVKQAPGQGLEWIGYISSYNGATNYNQKFKGRVTFTTDTSTSTAYMELRSLRSDDTAVYYCARDYDYDVGMDYWGQGTLVTVSS VL: DIQMTQSPSSLSASVGDRVTITCRASQDVSTAVAWYQQKPGKAPKLLIYSASFLYSGVPSRFSGSGSGTDFTLTISSLQPEDFATYYCQQSYTTPPTFGQGTKVEIKRTVAAPDIVMTQSPDSLAVSLGERATISCRASESVDNYGISFMKWFQQKPGQPPKLLIYAASNQGSGVPDRFSGSGSGTDFTLTISSLQAEDVAVYYCQQSKEVPWTFGGGTKVEIKR | –
– | DVD495 (DLL4/VEGF DVD-Ig) (bispecific antibody, human IgG1, HC linker long, LC linker long; also called DVD495H; DVD495L) VH: EVQLQQSGPELVKPGASVKMSCKASGYTFTSYVINWVKQKPGQGLEWIGLINPYNDGTKYNEKFKVKATLTSDKSSSTAYMELSSLTSEDSAVYYCASYYYGSRYYFDYWGQGTTLTVSSASTKGPSVFPLAPEVQLVESGGGLVQPGGSLRLSCAASGFTISDYWIHWVRQAPGKGLEWVAGITPAGGYTYYADSVKGRFTISADTSKNTAYLQMNSLRAEDTAVYYCARFVFFLPYAMDYWGQGTLVTVSS VL: DIQMTQSSSYLSVSLGGRVTITCKASDHINNWLAWYQQKPGNAPRLLISGATSLETGVPSRFSGSGSGKDYTLSITSLQTEDVATYYCQQYWSIPLTFGAGTKLELKRTVAAPSVFIFPPDIQMTQSPSSLSASVGDRVTITCRASQDVSTAVAWYQQKPGKAPKLLIYSASFLYSGVPSRFSGSGSGTDFTLTISSLQPEDFATYYCQQSYTTPPTFGQGTKVEIKR | 0.33 nM
– | DVD449 (DLL4/VEGF DVD-Ig) (bispecific antibody, human IgG1, HC linker long, LC linker long; also called DVD449H; DVD449L) VH: QVQLVQSGAEVKKPGASVKISCKASGYSFTAYYIHWVKQAPGQGLEWIGYISSYNGATNYNQKFKGRVTFTTDTSTSTAYMELRSLRSDDTAVYYCARDYDYDVGMDYWGQGTLVTVSSASTKGPSVFPLAPEVQLVESGGGLVQPGGSLRLSCAASGFTISDYWIHWVRQAPGKGLEWVAGITPAGGYTYYADSVKGRFTISADTSKNTAYLQMNSLRAEDTAVYYCARFVFFLPYAMDYWGQGTLVTVSS VL: DIVMTQSPDSLAVSLGERATISCRASESVDNYGISFMKWFQQKPGQPPKLLIYAASNQGSGVPDRFSGSGSGTDFTLTISSLQAEDVAVYYCQQSKEVPWTFGGGTKVEIKRTVAAPSVFIFPPDIQMTQSPSSLSASVGDRVTITCRASQDVSTAVAWYQQKPGKAPKLLIYSASFLYSGVPSRFSGSGSGTDFTLTISSLQPEDFATYYCQQSYTTPPTFGQGTKVEIKR | 0.36 nM
21.1 nM | DVD514 (VEGF/DLL4 DVD-Ig) (bispecific antibody, human IgG1, HC linker short, LC linker short; also called DVD514H; DVD514L) VH: EVQLVESGGGLVQPGGSLRLSCAASGFTISDYWIHWVRQAPGKGLEWVAGITPAGGYTYYADSVKGRFTISADTSKNTAYLQMNSLRAEDTAVYYCARFVFFLPYAMDYWGQGTLVTVSSASTKGPEVQLQQSGPELEKPGASVKISCKASGYSFTGYNMNWVKQSNGKSLEWIGNIDPYFGGTNYNQKFKGKATLTVDKSSSTAYMQLKSLTSEDSAVYYCARNYDYDGGCFDYWGQGTTLTVSS VL: DIQMTQSPSSLSASVGDRVTITCRASQDVSTAVAWYQQKPGKAPKLLIYSASFLYSGVPSRFSGSGSGTDFTLTISSLQPEDFATYYCQQSYTTPPTFGQGTKVEIKRTVAAPQAVVTQESALTTSPGETVTLTCRSSTGAVTTSNYANWVQEKPDHLFTGLIGGTNNRAPGVPARFSGSLIGDKAALTITGAQTEDEAIYFCALWYSNHWVFGGGTKLTVLG | –
9.27 nM | DVD490 (VEGF/DLL4 DVD-Ig) (bispecific antibody, human IgG1, HC linker short, LC linker short; also called DVD490H; DVD490L) VH: EVQLVESGGGLVQPGGSLRLSCAASGFTISDYWIHWVRQAPGKGLEWVAGITPAGGYTYYADSVKGRFTISADTSKNTAYLQMNSLRAEDTAVYYCARFVFFLPYAMDYWGQGTLVTVSSASTKGPEVQLQQSGPELVKPGASVKMSCKASGYTFTSYVINWVKQKPGQGLEWIGLINPYNDGTKYNEKFKVKATLTSDKSSSTAYMELSSLTSEDSAVYYCASYYYGSRYYFDYWGQGTTLTVSS VL: DIQMTQSPSSLSASVGDRVTITCRASQDVSTAVAWYQQKPGKAPKLLIYSASFLYSGVPSRFSGSGSGTDFTLTISSLQPEDFATYYCQQSYTTPPTFGQGTKVEIKRTVAAPDIQMTQSSSYLSVSLGGRVTITCKASDHINNWLAWYQQKPGNAPRLLISGATSLETGVPSRFSGSGSGKDYTLSITSLQTEDVATYYCQQYWSIPLTFGAGTKLELKR | –
– | DVD471 (DLL4/VEGF DVD-Ig) (bispecific antibody, human IgG1, HC linker long, LC linker long; also called DVD471H; DVD471L) VH: EVQLVESGGGLVQPGGSLRLSCAASGFTFTDNWISWVRQAPGKGLEWVGYISPNSGFTYYADSVKGRFTISADTSKNTAYLQMNSLRAEDTAVYYCARDNFGGYFDYWGQGTLVTVSSASTKGPSVFPLAPEVQLVESGGGLVQPGGSLRLSCAASGFTISDYWIHWVRQAPGKGLEWVAGITPAGGYTYYADSVKGRFTISADTSKNTAYLQMNSLRAEDTAVYYCARFVFFLPYAMDYWGQGTLVTVSS VL: DIQMTQSPSSLSASVGDRVTITCRASQDVSTAVAWYQQKPGKAPKLLIYSASFLYSGVPSRFSGSGSGTDFTLTISSLQPEDFATTYYCQQSYTGTVTFGQGTKVEIKRTVAAPSVFIFPPDIQMTQSPSSLSASVGDRVTITCRASQDVSTAVAWYQQKPGKAPKLLIYSASFLYSGVPSRFSGSGSGTDFTLTISSLQPEDFATYYCQQSYTTPPTFGQGTKVEIKR | 0.89 nM
